In PMC3846092:

Target: Cd^2+-bound Y82C-KcsA (UniProt P0A334)
Test: crystal structure

## Cd^2+-bound Y82C-KcsA (from UniProt P0A334 1-160) (natural protein)
  stoichiometry N: 4
